From patent US20250019440A1 (Zymeworks, published 2025)

Target: CD3 on T cells (Homo sapiens (Human), UniProt P07766 23-207; P04234 22-171; P09693 23-182)
Test: cell-based or functional assay

Sequence of CD3 on T cells (P07766 23-207 limits assumed, chain 1 of 3): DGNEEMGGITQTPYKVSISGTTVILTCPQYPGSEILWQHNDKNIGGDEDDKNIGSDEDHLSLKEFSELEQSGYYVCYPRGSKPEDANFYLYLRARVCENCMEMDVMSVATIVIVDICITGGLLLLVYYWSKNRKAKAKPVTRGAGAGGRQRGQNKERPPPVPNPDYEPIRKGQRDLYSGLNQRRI
Sequence of CD3 on T cells (P04234 22-171 limits assumed, chain 2 of 3): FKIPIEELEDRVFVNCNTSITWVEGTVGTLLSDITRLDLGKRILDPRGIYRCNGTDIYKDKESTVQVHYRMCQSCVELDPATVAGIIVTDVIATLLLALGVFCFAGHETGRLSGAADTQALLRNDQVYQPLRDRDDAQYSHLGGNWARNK
Sequence of CD3 on T cells (P09693 23-182 limits assumed, chain 3 of 3): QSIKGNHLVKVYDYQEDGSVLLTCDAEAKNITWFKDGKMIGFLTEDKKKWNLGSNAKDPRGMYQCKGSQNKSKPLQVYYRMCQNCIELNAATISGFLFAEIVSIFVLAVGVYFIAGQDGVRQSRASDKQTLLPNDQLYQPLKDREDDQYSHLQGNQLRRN

B1: v39001 (bispecific) (other)
heavy chain 1 (H1): EVQLVESGGGLVQPGGSLRLSCAASGVTFNYYGMSWIRQAPGKGLEWVASITSSGGRIYYPDSVKGRFTISRENTQKTLYLQMNSLRAEDTAVYYCTLDGRDGWVAYWGQGTLVTVSSASTKGPSVFPLAPSSKSTSGGTAALGCLVKDYFPEPVTVSWNSGALTSGVHTFPAVLQSSGLYSLSSVVTVPSSSLGTQTYICNVNHKPSNTKVDKKVEPKSCDKTHTCPPCPAPEAAGGPSVFLFPPKPKDTLMISRTPEVTCVVVSVSHEDPEVKFNWYVDGVEVHNAKTKPREEQYNSTYRVVSVLTVLHQDWLNGKEYKCKVSNKALPAPIEKTISKAKGQPREPQVYVYPPSRDELTKNQVSLTCLVKGFYPSDIAVEWESNGQPENNYKTTPPVLDSDGSFALVSKLTVDKSRWQQGNVFSCSVMHEALHNHYTQKSLSLSPGGGGGSGQVQLVESGGGLVQPGGSLRLSCSVSGIDLSSNPMIWVRQAPGKGLQYIGIIDTDGSTYYADWAKGRFTISKDSTTVYLQINSPRAEDTAVYYCARRLHGSSNGYYDDLWGQGTLVTVSSGGGGSGGGGSGGGGSGGGGSDGQMTQSPSSVSASVGDRVTITCQASQSIYSYLSWYQQKPGQRPKLLIYKASTLASGVPSRFSGSGSGTDFTLTISSVQPEDFATYYCQQGYTVTNVDKNTFGGGTKVEIK
light chain (L1): NFMLTQPHSVSESPGKTVTISCKRNTGNIGSNYVNWYQQHEGSSPTTIIYRNDKRPDGVSDRFSGSIDRSSKSASLTISNLKTEDEADYFCQSYSSGFIFGGGTKLTVLGQPKAAPSVTLFPPSSEELQANKATLVCLISDFYPGAVTVAWKADSSPVKAGVETTTPSKQSNNKYAASSYLSLTPEQWKSHRSYSCQVTHEGSTVEKTVAPTECS
heavy chain 2 (H2): NPPTFSPALLVVTEGDNATFTCSFSNTSESFVLNWYRMSPSNQTDALAAFPEDRSQPGQDARFRVTQLPNGRDFHMSVVRARRNDSGTYLCGAASLAPKAQIKESLRAELRVTEGGGGSGQVQLVESGGGLVQPGGSLRLSCSVSGIDLSSNPMIWVRQAPGKGLQYIGIIDTDGSTYYADWAKGRFTISKDSTTVYLQINSPRAEDTAVYYCARRLHGSSNGYYDDLWGQGTLVTVSSGGGGSGGGGSGGGGSGGGGSDGQMTQSPSSVSASVGDRVTITCQASQSIYSYLSWYQQKPGQRPKLLIYKASTLASGVPSRFSGSGSGTDFTLTISSVQPEDFATYYCQQGYTVTNVDKNTFGGGTKVEIKAAEPKSSDKTHTCPPCPAPEAAGGPSVFLFPPKPKDTLMISRTPEVTCVVVSVSHEDPEVKFNWYVDGVEVHNAKTKPREEQYNSTYRVVSVLTVLHQDWLNGKEYKCKVSNKALPAPIEKTISKAKGQPREPQVYVLPPSRDELTKNQVSLLCLVKGFYPSDIAVEWESNGQPENNYLTWPPVLDSDGSFFLYSKLTVDKSRWQQGNVFSCSVMHEALHNHYTQKSLSLSPG
- EC50 (read off the curve); hybrid PD-1/PD-L1 reporter gene assay, delta RLU, PD-1+ Jurkat T cells with SNU-620 cells, top right graph: ~50 pM
